Test results published in article PMC4920709.

Molecular target: Proprotein Convertase Subtilisin/Kexin type 9 (PCSK9), human plasma (human (endogenous in plasma)) (UniProt Q8NBP7)
UniProt Q8NBP7, sequence (Q8NBP7 153-692): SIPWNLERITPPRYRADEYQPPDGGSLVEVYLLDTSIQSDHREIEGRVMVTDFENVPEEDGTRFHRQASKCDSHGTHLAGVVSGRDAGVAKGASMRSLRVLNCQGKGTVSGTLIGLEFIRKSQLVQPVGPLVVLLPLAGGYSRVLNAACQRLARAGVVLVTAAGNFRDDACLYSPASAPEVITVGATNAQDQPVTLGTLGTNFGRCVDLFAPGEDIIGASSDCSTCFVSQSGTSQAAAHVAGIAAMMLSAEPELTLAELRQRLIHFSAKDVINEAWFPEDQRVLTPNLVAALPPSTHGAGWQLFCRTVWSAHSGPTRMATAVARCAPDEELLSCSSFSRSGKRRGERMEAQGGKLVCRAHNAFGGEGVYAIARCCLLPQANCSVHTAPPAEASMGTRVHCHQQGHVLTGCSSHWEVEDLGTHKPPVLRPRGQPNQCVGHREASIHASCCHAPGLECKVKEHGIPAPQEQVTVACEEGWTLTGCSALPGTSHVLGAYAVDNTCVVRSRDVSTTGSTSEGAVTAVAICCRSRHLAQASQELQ

“apolipoprotein B-100 (apoB-100) of human plasma LDL and Lp(a) (from UniProt P04114 28-4563) (natural protein)” gave a percent of plasma PCSK9 associated with apoB of 37%.
